In paper PMC8657434, “Aedes aegypti Piwi4 Structural Features Are Necessary for RNA Binding and Nuclear Localization”:

Columns and labels:
Experiment in all cases: SPR; SPR (Biacore T100, CM5-neutravidin, 5'-biotin RNA immobilized): 10 mM HEPES pH 7.4, 150 mM NaCl, 3 mM EDTA, 0.005% P20; steady-state fit; temperature not stated
Details in all cases: protein: recombinant; tags: 6xHis (C-terminal); label: 5' biotin; single strand
[1] = biological target: T1, AePiwi4 PAZ T41A (Aedes aegypti, UniProt Q171B3 270-380, T310A)
T1 sequence: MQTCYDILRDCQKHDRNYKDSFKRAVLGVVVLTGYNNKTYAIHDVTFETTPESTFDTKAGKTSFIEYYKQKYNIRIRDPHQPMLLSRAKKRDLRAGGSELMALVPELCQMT

[2] = biological target: T2, AePiwi4 PAZ T39A (Aedes aegypti, UniProt Q171B3 270-380, T308A)
T2 sequence: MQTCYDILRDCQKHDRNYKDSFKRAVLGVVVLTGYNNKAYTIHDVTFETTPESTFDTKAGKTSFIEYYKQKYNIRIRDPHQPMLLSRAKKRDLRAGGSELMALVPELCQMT

[3] = biological target: T3, AePiwi4 PAZ WT (Aedes aegypti, UniProt Q171B3 270-380)
T3 sequence: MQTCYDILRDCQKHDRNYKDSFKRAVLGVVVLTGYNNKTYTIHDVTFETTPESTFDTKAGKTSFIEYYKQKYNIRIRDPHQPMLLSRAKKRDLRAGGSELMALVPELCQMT

[4] = biological target: T4, AePiwi4 PAZ F55A (Aedes aegypti, UniProt Q171B3 270-380, F324A)
T4 sequence: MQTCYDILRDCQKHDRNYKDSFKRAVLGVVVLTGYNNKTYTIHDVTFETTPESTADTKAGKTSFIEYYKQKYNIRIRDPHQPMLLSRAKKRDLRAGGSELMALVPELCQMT

[5] = biological target: T5, AePiwi4 PAZ T41R (Aedes aegypti, UniProt Q171B3 270-380, T310R)
T5 sequence: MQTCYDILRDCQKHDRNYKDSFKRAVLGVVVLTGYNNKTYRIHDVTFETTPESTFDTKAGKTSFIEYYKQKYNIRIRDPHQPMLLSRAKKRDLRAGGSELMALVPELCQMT

[6] = biological target: T6, AePiwi4 PAZ Y40A (Aedes aegypti, UniProt Q171B3 270-380, Y309A)
T6 sequence: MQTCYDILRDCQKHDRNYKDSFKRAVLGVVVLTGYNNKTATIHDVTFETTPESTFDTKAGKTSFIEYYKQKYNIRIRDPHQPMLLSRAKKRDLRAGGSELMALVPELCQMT

B1: 3'm 28 nt PCLV piRNA (ssRNA)
RNA: CGAUAAGUGAUCUUUCAGCACUGCAGAA
modifications: 3' terminal 2'-O-methyl
With B1 the Kd [1] was 1400 ± 100 nM, the Kd [2] was 980 ± 200 nM and the Kd [3] was 1700 ± 800 nM. The binding result [4] was “no binding”, the Kd [5] was 570 ± 100 nM and the Kd [6] was 5500 ± 500 nM.

B2: 3'nm 28 nt PCLV piRNA (ssRNA)
RNA: CGAUAAGUGAUCUUUCAGCACUGCAGAA
Binder B2 has a Kd [1] of 5600 ± 1200 nM, a Kd [2] of 2800 ± 400 nM and a Kd [3] of 5000 ± 2200 nM. The binding result [4] was “no binding”, the Kd [5] was 2000 ± 500 nM and the binding result [6] was “no binding”.

B3: 3'nm 28 nt scrambled RNA (ssRNA)
RNA: AUGAGGACAUAAGCCUACGUAGUAUUCC
For B3, the Kd [3] was 2500 ± 100 nM.
